Measurements reported in patent US7708999B2, “Remedies for arthritis” (Kyowa Hakko Kirin Co., Ltd., priority 2001, dated 2010).

Columns and labels:
[1] = test system: rat monoiodoacetic acid-induced osteoarthritis model; assay: Rat monoiodoacetic acid-induced osteoarthritis model; format: in vivo; conditions: 4 mg/mL, 0.5 mL per 100 g intraperitoneally once; 3 days after monoiodoacetic acid
Protocol: The rat monoiodoacetic acid-induced osteoarthritis model was produced in the following manner by the method of Guingamp et al. (Guingamp C. et al., Arthritis Rheum., 40, 1670-1679, 1997) using Sprague-Dawley rats (male, 7 weeks old, Japan Charles River).
Monoiodoacetic acid (manufactured by Sigma-Aldrich) prepared with saline to a final concentration of 10 mg/mL was injected into the right knee joint of the rat in an amount of 25 μL. One group consisted of 10 rats. Anti-FGF-8 neutralizing antibody KM1334 was dissolved in saline (manufactured by Otsuka Seiyaku Kojo) to a final concentration of 4 mg/mL, and the antibody solution at a dose of 0.5 mL per 100 g of the body weight was intraperitoneally administered to a KM1334 administrated group once at the injection of monoiodoacetic acid. To saline group, the saline alone was intraperitoneally administered instead of the antibody solution. Further, a sham operated group was arranged, and the saline was injected in the knee joint thereof without the administration of the agent. After 3 days from the injection of monoiodoacetic acid, the joint washing liquid was recovered by the method described in Example 6. The amount of glycosaminoglycan in the joint lavage fluid was measured by the DMMB method described in Example 1.

FGF-8 [2] = molecular target: T1, FGF-8 (Homo sapiens, UniProt P55075); assay: Inhibition by antibody of FGF-8-promoted degradation of extracellular matrix of rabbit chondrocytes; format: cell-based; conditions: FGF-8 100 ng/mL, 48 hours, 1, 3 or 10 μg/mL tested
T1 construct: purchased R & D
T1 sequence (P55075 23-215 isoform P55075-3 limits assumed): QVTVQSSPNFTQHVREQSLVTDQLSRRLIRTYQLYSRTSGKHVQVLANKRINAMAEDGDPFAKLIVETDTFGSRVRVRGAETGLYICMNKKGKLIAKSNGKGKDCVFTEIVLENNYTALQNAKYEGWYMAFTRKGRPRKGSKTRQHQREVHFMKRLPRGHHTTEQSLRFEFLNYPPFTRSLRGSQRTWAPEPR
Protocol: Rabbit articular chondrocytes were isolated from both knees and shoulders of 3-week-old New Zealand white female rabbits and cultured according to the method of Tamura et al. (Tamura T. et al., Eur. J. Pharmacol., 419, 269-274, 2001). That is, the joints of both knees and the joints of both shoulders were isolated to collect the epiphyseal cartilages. […] The culture solution was removed, and the amount of glycosaminoglycan in extracellular matrix remaining on the plate was measured by the dimethymethylene blue (DMMB) method (Chandrasekhar S. et al., Anal. Biochem. 161 103-108, 1987). […] To 75 μL of this digested solution were added 25 μL of a guanidine hydrochloride buffer (2.88 mol/L guanidine hydrochloride, 50 mmol/L sodium acetate, pH 6.8) and 200 μL of a DMMB solution, and the absorbance was measured at 530/590 nm. The concentration of glycosaminoglycan of each sample was calculated from the absorbance of chondroitin sulfate (derived from whale cartilages, manufactured by Seikagaku Kogyo) used as a standard. Three experiments were performed for each condition and the mean values and the standard error were calculated.

FGF-8 [3] = molecular target: T1, FGF-8; assay: Inhibition by antibody of FGF-8-promoted production of matrix metalloproteinase-3 from rabbit chondrocytes; format: cell-based; conditions: FGF-8 100 ng/mL, 48 hours
Protocol: Rabbit articular chondrocytes were isolated and cultured by the method described in Example 1. After the chondrocytes became confluent, the culture solution was replaced with 0.5 vol % FBS/DMEM, followed by the culturing for 24 hours. The culture solution was removed, and 1 mL of 0.5 vol % FBS/DMEM (non-stimulated group), 0.5 vol % FBS/DMEM comprising FGF-8 (100 ng/mL)(0 group) or 0.5 vol % FBS/DMEM comprising FGF-8 (100 ng/mL) and anti-FGF-8 neutralizing antibody KM1334 (1, 3 or 10 μg/mL) was added, followed by the culturing for 48 hours. After 48 hours, the culture medium was recovered, the matrix metalloproteinase-3 concentration in the culture medium was measured using rabbit matrix metalloproteinase-3 ELISA system (manufactured by Amersham Biosciences). Three experiments were performed for each condition, and the mean values and the standard error were calculated.

- antibody concentration at which the promotion of degradation of extracellular matrix of the cartilage with FGF-8 was significantly inhibited (FGF-8 [2]): ≥ 3 µg/mL
- antibody concentration at which the production of matrix metalloproteinase-3 from the chondrocytes with FGF-8 was significantly inhibited (FGF-8 [3]): ≥ 1 µg/mL
- percent inhibition of matrix metalloproteinase-3 production (FGF-8 [3]; antibody 1 μg/mL): 72%
- percent inhibition of matrix metalloproteinase-3 production (FGF-8 [3]; antibody 3 μg/mL): 74%
- percent inhibition of matrix metalloproteinase-3 production (FGF-8 [3]; antibody 10 μg/mL): 100%
B1: KM1334: anti-FGF-8 neutralizing monoclonal antibody produced by hybridoma KM1334 (FERM BP-5451), mouse IgG1 subclass (antibody, V domains shown)
VH: QVQLQQSGAEVARPGASVKLSCKASGYTFTDYYLNWVKQRSGQGLEWIGEIDPGSDSIYYNENLEGRATLTADKSSSTAYMQLNSLTSEDSAVYFCARYGYSRYDVRFVYWGQGTLVTVST
VL: DVLMTQTPLSLPVSLGDQASISCRSSQSLVHSNGRTYLEWYLQKPGQSPKVLIYKVSNRISGVPDRFSGSGSGTDFTLKISRVEAEDLGVYFCFQGSHVPYTFGGGTKLEIK
- inhibition of the increase in concentration of glycosaminoglycan in the joint lavage fluid [1]: 42%
